The values that follow come from patent US20080261871A1, “Y2/Y4 Selective Receptor Agonists for Therapeutic Interventions” (priority 2004, published 2008).

Data set [1] is described as follows: in vivo. The following applies: dog, iv, 100 ug/kg. The protocol: (§1) At the highest dose a plasma levels of 100 nM was obtained in the dogs.
In another data set the test system is anesthetized dogs. The experiment in a line: in vivo. The conditions noted are these: dog, iv. The procedure:
as §1

A further data set has as its system mice. Briefly: Acute food intake in mice after subcutaneous injection. The following applies: mice fasted 16 hours, sc. Type of data set: in vivo. The protocol: Food and water were available ad libitum except just before experiments (see below). The mice were acclimatized to subcutaneous injections during the week before experiments started. Mice were used once each in the experiments. Just before administration the peptides were diluted in physiological saline and administered in 100 μL volume for subcutaneous administration. Results are expressed as mean +/−SE. Analysis of variance followed by Bonferroni's test were used to assess differences among groups.
A standard diet was used (CLEA Japan, Inc., Tokyo, Japan) and food intake was measured by subtracting uneaten food from the initially premeasured food after administration and checking for food spillage.

Data set [2] can be described thus: in vivo. The conditions noted are these: cynomolgus monkey. On the set-up: species or system cyno monkeys. From the text:
[…]. […] […]. Apparently, the Y4 receptor activation—conceivably in the area postreama-prevents the emetic effect of the Y2 activation form the same compound. This property of a combined Y2-Y4 selective agonist is of great benefit for the treatment of obesity and associated conditions.

A further data set has as its target T1, human Y2 receptor (human, UniProt P49146 1-381).
T1 sequence (looked up): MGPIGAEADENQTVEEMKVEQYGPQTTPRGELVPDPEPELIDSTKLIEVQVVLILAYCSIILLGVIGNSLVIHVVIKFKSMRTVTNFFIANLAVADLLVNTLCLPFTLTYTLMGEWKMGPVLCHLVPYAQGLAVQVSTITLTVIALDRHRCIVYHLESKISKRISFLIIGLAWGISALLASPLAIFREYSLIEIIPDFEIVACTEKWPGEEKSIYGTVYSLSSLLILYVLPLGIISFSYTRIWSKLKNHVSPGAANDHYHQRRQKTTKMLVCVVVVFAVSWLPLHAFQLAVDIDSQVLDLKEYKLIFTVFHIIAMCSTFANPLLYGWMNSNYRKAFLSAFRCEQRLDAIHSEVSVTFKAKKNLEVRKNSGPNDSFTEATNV
The experiment in a line: cell-based or functional assay.

A further data set has as its target human Y4 receptor (human, UniProt P50391 1-375). Briefly: cell-based or functional assay.
The next data set concerns the target T2, human Y1 receptor (human, UniProt P25929 1-384).
T2 sequence (looked up): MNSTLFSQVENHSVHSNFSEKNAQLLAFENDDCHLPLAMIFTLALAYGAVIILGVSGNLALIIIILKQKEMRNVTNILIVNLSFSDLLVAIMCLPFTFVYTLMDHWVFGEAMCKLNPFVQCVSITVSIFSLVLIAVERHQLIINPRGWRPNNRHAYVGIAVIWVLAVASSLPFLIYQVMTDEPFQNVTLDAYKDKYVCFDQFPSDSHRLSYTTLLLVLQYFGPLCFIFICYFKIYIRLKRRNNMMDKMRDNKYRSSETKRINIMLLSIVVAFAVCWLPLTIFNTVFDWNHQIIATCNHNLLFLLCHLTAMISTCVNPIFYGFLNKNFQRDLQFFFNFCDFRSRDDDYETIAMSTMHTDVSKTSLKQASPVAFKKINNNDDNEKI
The experiment in a line: cell-based or functional assay.

No end group written: not given here.

human Y4 receptor, sequence (P50391 whole entry): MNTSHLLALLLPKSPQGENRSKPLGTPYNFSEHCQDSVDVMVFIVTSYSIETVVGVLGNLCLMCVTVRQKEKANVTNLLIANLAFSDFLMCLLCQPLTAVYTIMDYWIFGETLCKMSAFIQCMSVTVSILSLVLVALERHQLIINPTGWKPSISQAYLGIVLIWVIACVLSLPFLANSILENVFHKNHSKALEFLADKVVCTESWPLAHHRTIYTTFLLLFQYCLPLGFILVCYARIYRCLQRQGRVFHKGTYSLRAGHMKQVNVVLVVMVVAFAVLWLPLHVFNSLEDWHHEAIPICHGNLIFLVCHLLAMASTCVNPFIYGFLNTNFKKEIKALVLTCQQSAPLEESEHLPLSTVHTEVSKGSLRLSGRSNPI

Regarding `CC[C@H](C)[C@H](NC(=O)[C@H](Cc1ccc(O)cc1)NC(=O)[C@H](CCCNC(=N)N)NC(=O)[C@H](CCCNC(=N)N)NC(=O)[C@H](CC(C)C)NC(=O)[C@H](CC(=O)O)NC(=O)[C@H](C)NC(=O)[C@H](C)NC(=O)[C@H](Cc1ccc(O)cc1)NC(=O)[C@H](CCC(N)=O)NC(=O)[C@H](C)NC(=O)[C@H](CCSC)NC(=O)[C@H](CCC(N)=O)NC(=O)[C@H](CCC(=O)O)NC(=O)[C@@H]1CCCN1C(=O)[C@@H](NC(=O)[C@H](C)NC(=O)[C@H](CC(N)=O)NC(=O)[C@H](CC(=O)O)NC(=O)CNC(=O)[C@@H]1CCCN1C(=O)[C@H](Cc1ccc(O)cc1)NC(=O)[C@@H](NC(=O)[C@@H]1CCCN1C(=O)[C@H](CCC(=O)O)NC(=O)[C@H](CC(C)C)NC(=O)[C@@H]1CCCN1C(=O)[C@H](C)N)C(C)C)[C@@H](C)O)C(=O)N[C@@H](CC(N)=O)C(=O)N[C@@H](CCSC)C(=O)N[C@@H](CC(C)C)C(=O)N[C@H](C(=O)N[C@@H](CCCNC(=N)N)C(=O)N[C@@H](CCC(N)=O)C(=O)N[C@@H](CCCNC(=N)N)C(=O)N[C@@H](Cc1ccc(O)cc1)C(N)=O)[C@@H](C)O` [[Gln34]PP], the values for the level at time molar in “in vivo [1]” and in “in vivo [2]” were 0.1 µM and 0.012 to 0.013 µM, respectively. For the same molecule, in the data set on anesthetized dogs, the “plasma level dose relationship” value is reported as “linear dose relationship”. The “duration of inhibition of food intake” value with mice (1 μg per animal) is listed as “more than 8 hours”. Also, in the data set with mice (1 and 10 μg per animal), the “inhibitory effect on food intake compared with PYY3-36” value was “more pronounced and long-lasting inhibitory effect”.

For APLEPVYPGDNATPEQMAQYAADLRHYINMLTRQRY-NH2 [[His26,Gln34]PP], the “EC50, inositol phosphate turnover” value turned out to be 6.1 nM with human Y2 receptor, 9.2 nM with human Y4 receptor and 130 nM with human Y1 receptor.

In the case of APLEPVYPGDNATPEQMAQYAADLRRYINLLTRQRY-NH2 [[Leu30,Gln34]PP], the results for the “EC50, inositol phosphate turnover” value with human Y2 receptor, in the data set with human Y4 receptor and with human Y1 receptor were 8.6 nM, 4.5 nM and 102 nM, respectively.
